# Source: publication PMC6606445 (Nature structural & molecular biology, 2018)
# B1: SYCP1 αC-end extended (676-783) L679A I688A (domain or fragment)
# chain: ENLAEEVEKAKVAADEAVKLQKEIDKRCQHKIAEMVALMEKHKHQYDKIIEERDSELGLYKSKEQEQSSLRASLEIELSNLKAELLSVKKQLEIEREEKEKLKREAKE
# B2: SYCP1 αCore (101-783) (domain or fragment)
# chain: GLSRVYSKLYKEAEKIKKWKVSTEAELRQKESKLQENRKIIEAQRKAIQELQFGNEKVSLKLEEGIQENKDLIKENNATRHLCNLLKETCARSAEKTKKYEYEREETRQVYMDLNNNIEKMITAFEELRVQAENSRLEMHFKLKEDYEKIQHLEQEYKKEINDKEKQVSLLLIQITEKENKMKDLTFLLEESRDKVNQLEEKTKLQSENLKQSIEKQHHLTKELEDIKVSLQRSVSTQKALEEDLQIATKTICQLTEEKETQMEESNKARAAHSFVVTEFETTVCSLEELLRTEQQRLEKNEDQLKILTMELQKKSSELEEMTKLTNNKEVELEELKKVLGEKETLLYENKQFEKIAEELKGTEQELIGLLQAREKEVHDLEIQLTAITTSEQYYSKEVKDLKTELENEKLKNTELTSHCNKLSLENKELTQETSDMTLELKNQQEDINNNKKQEERMLKQIENLQETETQLRNELEYVREELKQKRDEVKCKLDKSEENCNNLRKQVENKNKYIEELQQENKALKKKGTAESKQLNVYEIKVNKLELELESAKQKFGEITDTYQKEIEDKKISEENLLEEVEKAKVIADEAVKLQKEIDKRCQHKIAEMVALMEKHKHQYDKIIEERDSELGLYKSKEQEQSSLRASLEIELSNLKAELLSVKKQLEIEREEKEKLKREAKE
# B3: SYCP1 αCore-ΔNtip (112-783) (domain or fragment)
# chain: EAEKIKKWKVSTEAELRQKESKLQENRKIIEAQRKAIQELQFGNEKVSLKLEEGIQENKDLIKENNATRHLCNLLKETCARSAEKTKKYEYEREETRQVYMDLNNNIEKMITAFEELRVQAENSRLEMHFKLKEDYEKIQHLEQEYKKEINDKEKQVSLLLIQITEKENKMKDLTFLLEESRDKVNQLEEKTKLQSENLKQSIEKQHHLTKELEDIKVSLQRSVSTQKALEEDLQIATKTICQLTEEKETQMEESNKARAAHSFVVTEFETTVCSLEELLRTEQQRLEKNEDQLKILTMELQKKSSELEEMTKLTNNKEVELEELKKVLGEKETLLYENKQFEKIAEELKGTEQELIGLLQAREKEVHDLEIQLTAITTSEQYYSKEVKDLKTELENEKLKNTELTSHCNKLSLENKELTQETSDMTLELKNQQEDINNNKKQEERMLKQIENLQETETQLRNELEYVREELKQKRDEVKCKLDKSEENCNNLRKQVENKNKYIEELQQENKALKKKGTAESKQLNVYEIKVNKLELELESAKQKFGEITDTYQKEIEDKKISEENLLEEVEKAKVIADEAVKLQKEIDKRCQHKIAEMVALMEKHKHQYDKIIEERDSELGLYKSKEQEQSSLRASLEIELSNLKAELLSVKKQLEIEREEKEKLKREAKE
# B4: GST-αC-dimer (domain or fragment)
# chain: EKETQMEESNKARAAHSFVVTEFETTVCSLEELLRTEQQRLEKNEDQLKILTMELQKKSSELEEMTKLTNNKEVELEELKKVLGEKETLLYENKQFEKIAEELKGTEQELIGLLQAREKEVHDLEIQLTAITTSEQYYSKEVKDLKTELENEKLKNTELTSHCNKLSLENKELTQETSDMTLELKNQQEDINNNKKQEERMLKQIENLQETETQLRNELEYVREELKQKRDEVKCKLDKSEENCNNLRKQVENKNKYIEELQQENKALKKKGTAESKQLNVYEIKVNKLELELESAKQKFGEITDTYQKEIEDKKISEENLLEEVEKAKVIADEAVKLQKEIDKRCQHKIAEMVALMEKHKHQYDKIIEERDSELGLYKSKEQEQSSLRASLEIELSNLKAELLSVKKQLEIEREEKEKLKREAKE
# B5: SYCP1 αC-dimer (358-783) (domain or fragment)
# chain: B4 chain
# B6: SYCP1 αC-end (676-770) (domain or fragment)
# chain: ENLLEEVEKAKVIADEAVKLQKEIDKRCQHKIAEMVALMEKHKHQYDKIIEERDSELGLYKSKEQEQSSLRASLEIELSNLKAELLSVKKQLEIE
# B7: SYCP1 αN (101-362) (domain or fragment)
# chain: GLSRVYSKLYKEAEKIKKWKVSTEAELRQKESKLQENRKIIEAQRKAIQELQFGNEKVSLKLEEGIQENKDLIKENNATRHLCNLLKETCARSAEKTKKYEYEREETRQVYMDLNNNIEKMITAFEELRVQAENSRLEMHFKLKEDYEKIQHLEQEYKKEINDKEKQVSLLLIQITEKENKMKDLTFLLEESRDKVNQLEEKTKLQSENLKQSIEKQHHLTKELEDIKVSLQRSVSTQKALEEDLQIATKTICQLTEEKETQ
# B8: SYCP1 αN-tetramer (206-362) (domain or fragment)
# chain: ETRQVYMDLNNNIEKMITAFEELRVQAENSRLEMHFKLKEDYEKIQHLEQEYKKEINDKEKQVSLLLIQITEKENKMKDLTFLLEESRDKVNQLEEKTKLQSENLKQSIEKQHHLTKELEDIKVSLQRSVSTQKALEEDLQIATKTICQLTEEKETQ
# Tests used:
# [1] = target: SYCP1 αN-end (101-206) (human) (UniProt Q15431); assay: crystal structure
# [2] = target: truncated SYCP1 αN-end (101-175) (human) (UniProt Q15431); assay: crystal structure
# RecE-αN-tetramer = RecE-αN-tetramer (UniProt Q15431); assay: SEC-MALS
# SEC-MALS [3] = target: the molecule itself; assay: SEC-MALS
# SEC-MALS [4] = target: the molecule itself; assay: SEC-MALS; remark: listed apart in the source
# crystal structure = target: the molecule itself; assay: crystal structure
molecule,measurement,setting,value
SYCP1 αN-end (101-206) (from UniProt Q15431 101-206) (domain or fragment),stoichiometry N,[1],4
truncated SYCP1 αN-end (101-175) (from UniProt Q15431 101-175) (domain or fragment),stoichiometry N,[2],4
RecE-αN-tetramer (from UniProt Q15431 206-362),stoichiometry N,RecE-αN-tetramer,4
B1,stoichiometry N,SEC-MALS [3],2
B2,binding result,SEC-MALS [4],binds
B3,stoichiometry N,SEC-MALS [4],4
B4,stoichiometry N,SEC-MALS [4],2
B5,stoichiometry N,SEC-MALS [4],2
B6,stoichiometry N,crystal structure,4
B7,binding result,SEC-MALS [4],binds
B8,stoichiometry N,SEC-MALS [4],4
